Columns and labels:
[1] = molecular target: T1, casp7_mouse Casp7 (UniProt P97864)
T1 sequence: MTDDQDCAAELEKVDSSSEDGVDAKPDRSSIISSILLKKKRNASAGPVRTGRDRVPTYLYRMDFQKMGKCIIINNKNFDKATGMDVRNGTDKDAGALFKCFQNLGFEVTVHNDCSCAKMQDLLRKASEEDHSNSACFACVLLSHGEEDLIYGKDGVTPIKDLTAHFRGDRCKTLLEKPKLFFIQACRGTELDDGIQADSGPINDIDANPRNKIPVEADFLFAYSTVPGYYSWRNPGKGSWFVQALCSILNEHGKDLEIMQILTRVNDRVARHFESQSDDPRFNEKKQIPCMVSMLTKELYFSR

[2] = molecular target: T2, casp3_mouse Casp3 (UniProt P70677)
T2 sequence: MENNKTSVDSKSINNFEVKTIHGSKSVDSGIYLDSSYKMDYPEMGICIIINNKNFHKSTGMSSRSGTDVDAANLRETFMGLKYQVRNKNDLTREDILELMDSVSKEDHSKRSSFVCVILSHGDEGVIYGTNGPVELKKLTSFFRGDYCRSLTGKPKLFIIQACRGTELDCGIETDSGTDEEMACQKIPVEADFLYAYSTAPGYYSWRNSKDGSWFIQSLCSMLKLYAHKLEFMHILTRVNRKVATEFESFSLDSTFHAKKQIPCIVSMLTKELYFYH

[3] = molecular target: T2, casp3_mouse Casp3; remark: listed apart in the source

Substance | effect of a mutation on the interaction [1] | effect of a mutation on the interaction [2] | effect of a mutation on the interaction [3]
Small ribosomal subunit protein uS13 (Mus musculus) (from UniProt P62270) K88A | decreasing interaction | increasing interaction | 
Small ribosomal subunit protein uS13 (Mus musculus) (from UniProt P62270) Q87A |  |  | increasing interaction

Reference: IntAct's records for PubMed 19759058
